Positions count from the first letter of the chain named. Each block holds one binder with its values, some of them ahead of it.
What was measured:
human B7-H4 on cells [1] = molecular target: T1, human B7-H4 on cells (human, UniProt Q7Z7D3 25-282); experiment: cell-based or functional assay
T1 sequence (looked up): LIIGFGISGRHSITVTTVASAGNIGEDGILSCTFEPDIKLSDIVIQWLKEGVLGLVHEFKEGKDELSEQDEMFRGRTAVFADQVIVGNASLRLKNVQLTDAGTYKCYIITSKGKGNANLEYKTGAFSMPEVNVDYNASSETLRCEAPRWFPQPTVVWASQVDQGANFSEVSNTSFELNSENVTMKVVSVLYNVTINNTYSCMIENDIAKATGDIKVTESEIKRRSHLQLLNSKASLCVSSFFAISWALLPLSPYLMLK

human B7-H4 on cells [2] = molecular target: T1, human B7-H4 on cells; experiment: flow cytometry on MX-1 cells, 37 C
[3] = molecular target: T2, human CD3 on primary human T cells (human, UniProt P07766 23-207; P04234 22-171); experiment: flow cytometry on primary human T cells, 37 C
T2 construct: whole, on cells; On cells the whole CD3/TCR complex is present
T2 sequence (P07766 23-207, chain 1 of 2): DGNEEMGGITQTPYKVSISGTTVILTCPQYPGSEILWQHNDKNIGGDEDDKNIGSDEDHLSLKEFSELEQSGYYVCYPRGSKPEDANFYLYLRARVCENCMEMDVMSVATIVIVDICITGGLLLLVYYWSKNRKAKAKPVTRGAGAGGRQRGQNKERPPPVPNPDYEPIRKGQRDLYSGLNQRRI
T2 sequence (P04234 22-171, chain 2 of 2): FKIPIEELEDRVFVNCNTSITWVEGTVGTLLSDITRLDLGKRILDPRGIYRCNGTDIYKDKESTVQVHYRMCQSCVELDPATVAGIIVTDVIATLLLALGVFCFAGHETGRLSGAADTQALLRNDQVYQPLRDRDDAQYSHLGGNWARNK

[4] = molecular target: T3, human B7-H4 extracellular domain (human, UniProt Q7Z7D3 29-258); experiment: SPR 25 C; bispecific on anti-hFc chip, ECD analyte
T3 construct: Soluble ECD used as SPR analyte; also called huB7-H4 ECD; huB7-H4
T3 sequence: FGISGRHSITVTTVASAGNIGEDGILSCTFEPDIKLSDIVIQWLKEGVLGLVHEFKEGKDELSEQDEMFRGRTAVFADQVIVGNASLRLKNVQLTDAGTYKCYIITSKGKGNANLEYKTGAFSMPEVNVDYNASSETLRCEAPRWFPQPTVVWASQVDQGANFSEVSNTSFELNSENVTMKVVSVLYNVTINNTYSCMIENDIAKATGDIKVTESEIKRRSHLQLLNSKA

[5] = molecular target: T4, cyno B7-H4 extracellular domain (cyno, UniProt Q7Z7D3 29-258 (human entry)); experiment: SPR 25 C; bispecific on anti-hFc chip, ECD analyte
T4 construct: Soluble ECD used as SPR analyte; also called cyB7-H4 ECD; cyB7-H4
T4 sequence: T3 sequence with L49I

[6] = molecular target: T5, mouse B7-H4 extracellular domain (mouse, UniProt Q7TSP5 29-258); experiment: SPR 25 C; bispecific on anti-hFc chip, ECD analyte
T5 construct: Soluble ECD used as SPR analyte; also called muB7-H4 ECD; muB7-H4
T5 sequence: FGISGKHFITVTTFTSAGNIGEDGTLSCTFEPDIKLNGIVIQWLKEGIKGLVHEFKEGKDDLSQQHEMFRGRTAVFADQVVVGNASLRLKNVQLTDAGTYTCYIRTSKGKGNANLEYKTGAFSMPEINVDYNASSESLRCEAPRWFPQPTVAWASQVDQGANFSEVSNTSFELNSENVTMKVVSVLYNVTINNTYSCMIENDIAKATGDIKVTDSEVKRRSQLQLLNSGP

[7] = molecular target: T3, human B7-H4 extracellular domain; experiment: SPR 37 C; bispecific on anti-hFc chip, ECD analyte
[8] = molecular target: T4, cyno B7-H4 extracellular domain; experiment: SPR 37 C; bispecific on anti-hFc chip, ECD analyte
[9] = molecular target: T6, human CD3 (delta/epsilon heterodimer) (human, UniProt P07766 23-126; P04234 22-105); experiment: SPR 25 C; CD3 delta/epsilon on anti-His chip, bispecific analyte
T6 construct: captured on an anti-His chip, so it carries a His tag; also called huCD3
T6 sequence (P07766 23-126, stated change not applied, chain 1 of 2): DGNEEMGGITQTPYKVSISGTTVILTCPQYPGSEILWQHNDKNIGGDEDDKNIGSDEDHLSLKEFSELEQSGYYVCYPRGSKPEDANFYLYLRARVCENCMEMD
T6 sequence (P04234 22-105, stated change not applied, chain 2 of 2): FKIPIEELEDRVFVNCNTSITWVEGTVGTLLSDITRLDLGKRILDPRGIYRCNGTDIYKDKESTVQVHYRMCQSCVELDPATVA

[10] = molecular target: T7, cyno CD3 (delta/epsilon heterodimer) (cyno, UniProt Q95LI5 22-117; Q95LI8 22-105); experiment: as above
T7 construct: also called cyCD3
T7 sequence (Q95LI5 22-117, stated change not applied, chain 1 of 2): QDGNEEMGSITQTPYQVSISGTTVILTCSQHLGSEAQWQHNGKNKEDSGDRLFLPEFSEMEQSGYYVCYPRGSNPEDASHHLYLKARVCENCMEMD
T7 sequence (Q95LI8 22-105, stated change not applied, chain 2 of 2): as the sequence (P04234 22-105, stated change not applied, chain 2 of 2) above, with I5V, N15K, I20V, S32T, D33N, I34N, T64A, S74N, V83L counted along it
For T cell mediated tumor cell killing, OVCAR3-Luc in this document: unit not given here.
For T cell mediated tumor cell killing, T47D in this document: unit not given here.

B1: B7-H4xCD3 bispecific antibody 1169 (bispecific antibody, IgG2)
heavy 1: EVQLLESGGGLVQPGGSLRLSCAASGFTFSSYAMSWVRQAPGKGLEWVSAISGGGGSTYYADSVKGRFTISRDNSKNTLYLQMNSLRAEDTAVYYCARDIQWYGESTLFDYWGQGTLVTVSSASTKGPSVFPLAPCSRSTSESTAALGCLVKDYFPEPVTVSWNSGALTSGVHTFPAVLQSSGLYSLSSVVTVPSSNFGTQTYTCNVDHKPSNTKVDKTVERKCEVECPECPAPPVAGPSVFLFPPKPKDTLMISRTPEVTCVVVAVSHEDPEVQFNWYVDGVEVHNAKTKPREEQFNSTFRVVSVLTVVHQDWLNGKEYKCKVSNKGLPSSIEKTISKTKGQPREPQVYTLPPSREEMTKNQVSLTCEVKGFYPSDIAVEWESNGQPENNYKTTPPMLDSDGSFFLYSKLTVDKSRWQQGNVFSCSVMHEALHNHYTQKSLSLSPG
light 1: DIQMTQSPSSLSASVGDRVTITCRASQSTRSWLAWHQQKPGKAPKLLIYKASSLESGVPSRFSGSGSGTDFTLTISSLQPEDFATYYCQQYGSYSRTFGQGTKVEIKRTVAAPSVFIFPPSDEQLKSGTASVVCLLNNFYPREAKVQWKVDNALQSGNSQESVTEQDSKDSTYSLSSTLTLSKADYEKHKVYACEVTHQGLSSPVTKSFNRGEC
heavy 2: EVQLVESGGGLVQPGGSLRLSCAASGFTFSDYYMTWVRQAPGKGLEWVAFIRNQARGYTSDHNPSVKGRFTISRDNAKNSLYLQMNSLRAEDTAVYYCARDRPSYYVLDYWGQGTTVTVSSASTKGPSVFPLAPCSRSTSESTAALGCLVKDYFPEPVTVSWNSGALTSGVHTFPAVLQSSGLYSLSSVVTVPSSNFGTQTYTCNVDHKPSNTKVDKTVERKCRVRCPRCPAPPVAGPSVFLFPPKPKDTLMISRTPEVTCVVVAVSHEDPEVQFNWYVDGVEVHNAKTKPREEQFNSTFRVVSVLTVVHQDWLNGKEYKCKVSNKGLPSSIEKTISKTKGQPREPQVYTLPPSREEMTKNQVSLTCLVKGFYPSDIAVEWESNGQPENNYKTTPPMLDSDGSFFLYSRLTVDKSRWQQGNVFSCSVMHEALHNHYTQKSLSLSPGK
light 2: DIQMTQSPSSLSASVGDRVTITCTSSQSLFNVRSQKNYLAWYQQKPGKAPKLLIYWASTRESGVPSRFSGSGSGTDFTLTISSLQPEDFATYYCKQSYDLFTFGGGTKVEIKRTVAAPSVFIFPPSDEQLKSGTASVVCLLNNFYPREAKVQWKVDNALQSGNSQESVTEQDSKDSTYSLSSTLTLSKADYEKHKVYACEVTHQGLSSPVTKSFNRGEC
notes: Chains 1-2: B7-H4 arm; chains 3-4: CD3 arm; IgG2
T cell mediated tumor cell killing EC50, HCC1954-Luc (human B7-H4 on cells [1]): 975 nM | T cell mediated tumor cell killing, OVCAR3-Luc (human B7-H4 on cells [1]): 190 | T cell mediated tumor cell killing, T47D (human B7-H4 on cells [1]): 818 | EC50 (human B7-H4 on cells [2]): 10 nM | EC50 [3]: 5.22 nM

B2: B7-H4xCD3 bispecific antibody 1133 (bispecific antibody, IgG2)
heavy 1: EVQLVESGGGLVQPGGSLRLSCAVSGGSFSGYYWNWIRQPPGKGLEWIGEINHSGSATYNPSLKSRVTISVDTAKNSLYLQMNSLRAEDTAVYYCARGLYNWNVDHWGQGTLVTVSSASTKGPSVFPLAPCSRSTSESTAALGCLVKDYFPEPVTVSWNSGALTSGVHTFPAVLQSSGLYSLSSVVTVPSSNFGTQTYTCNVDHKPSNTKVDKTVERKCEVECPECPAPPVAGPSVFLFPPKPKDTLMISRTPEVTCVVVAVSHEDPEVQFNWYVDGVEVHNAKTKPREEQFNSTFRVVSVLTVVHQDWLNGKEYKCKVSNKGLPSSIEKTISKTKGQPREPQVYTLPPSREEMTKNQVSLTCEVKGFYPSDIAVEWESNGQPENNYKTTPPMLDSDGSFFLYSKLTVDKSRWQQGNVFSCSVMHEALHNHYTQKSLSLSPG
light 1: DIQMTQSPSSLSASVGDRVTITCRASQGIRNDLGWYQQKPGKAPKRLIYAASSLQSGVPSRFSGSGSGTDFTLTISSLQPEDFATYYCLQHNAYPRTFGGGTKVEIKRTVAAPSVFIFPPSDEQLKSGTASVVCLLNNFYPREAKVQWKVDNALQSGNSQESVTEQDSKDSTYSLSSTLTLSKADYEKHKVYACEVTHQGLSSPVTKSFNRGEC
heavy 2: B1 heavy 2
light 2: B1 light 2
notes: as for B1
T cell mediated tumor cell killing EC50, HCC1954-Luc (human B7-H4 on cells [1]): 790 nM | T cell mediated tumor cell killing, T47D (human B7-H4 on cells [1]): 2810 | EC50 (human B7-H4 on cells [2]): 1.47 nM | EC50 [3]: 5.73 nM

B3: B7-H4xCD3 bispecific antibody 1134 (bispecific antibody, IgG2)
heavy 1: B2 heavy 1 with N52D, S54Q, A57T, T58K, L78F
light 1: B2 light 1
heavy 2: B1 heavy 2
light 2: B1 light 2
notes: as for B1
T cell mediated tumor cell killing EC50, HCC1954-Luc (human B7-H4 on cells [1]): 1560 nM | T cell mediated tumor cell killing, OVCAR3-Luc (human B7-H4 on cells [1]): 540 | T cell mediated tumor cell killing, T47D (human B7-H4 on cells [1]): 7330 | EC50 (human B7-H4 on cells [2]): 17.6 nM | EC50 [3]: 6.9 nM

B5: B7-H4xCD3 bispecific antibody 0080 (bispecific antibody, IgG2)
heavy 1: QVQLQQWGAGLLKPSETLPLTCAVYGGSFSGYYWNWIRQPPGKGLEWIGEINHSGSATYNPSLKSRVTISVDTSKNHFSLKLSSVTAADTAVYFCARGLYNWNVDHWGQGTLVTVSSASTKGPSVFPLAPCSRSTSESTAALGCLVKDYFPEPVTVSWNSGALTSGVHTFPAVLQSSGLYSLSSVVTVPSSNFGTQTYTCNVDHKPSNTKVDKTVERKCEVECPECPAPPVAGPSVFLFPPKPKDTLMISRTPEVTCVVVAVSHEDPEVQFNWYVDGVEVHNAKTKPREEQFNSTFRVVSVLTVVHQDWLNGKEYKCKVSNKGLPSSIEKTISKTKGQPREPQVYTLPPSREEMTKNQVSLTCEVKGFYPSDIAVEWESNGQPENNYKTTPPMLDSDGSFFLYSKLTVDKSRWQQGNVFSCSVMHEALHNHYTQKSLSLSPGK
light 1: B2 light 1 with D70E, A93S
heavy 2: B1 heavy 2
light 2: B1 light 2
notes: Chains 1-2: B7-H4 arm; chains 3-4: CD3 arm; IgG2 EEE/RRR; also called anti-B7-H4 clone 7H7
T cell mediated tumor cell killing EC50, HCC1954-Luc (human B7-H4 on cells [1]): 36 nM | Kd [4]: 2.39 nM | koff [4]: 0.000692 s⁻¹ | kon [4]: 296000 M⁻¹ s⁻¹ | Kd [5]: 4.29 nM | koff [5]: 0.000676 s⁻¹ | kon [5]: 157000 M⁻¹ s⁻¹ | Kd [6]: 74.8 nM | koff [6]: 0.0138 s⁻¹ | kon [6]: 189000 M⁻¹ s⁻¹ | Kd [7]: 6.08 nM | koff [7]: 0.00283 s⁻¹ | kon [7]: 465000 M⁻¹ s⁻¹ | Kd [8]: 12.8 nM | koff [8]: 0.00282 s⁻¹ | kon [8]: 220000 M⁻¹ s⁻¹ | Kd [9]: 12.7 nM | koff [9]: 0.00521 s⁻¹ | kon [9]: 411000 M⁻¹ s⁻¹ | Kd [10]: 13.3 nM | koff [10]: 0.00493 s⁻¹ | kon [10]: 372000 M⁻¹ s⁻¹

More lines, main results first:

EC50 (human B7-H4 on cells [2]): 3.64 nM | EC50 [3]: 5.78 nM
B4: B7-H4xCD3 bispecific antibody 1037 (bispecific antibody, IgG2)
heavy 1: B2 heavy 1 with I37V, P40A
light 1: B2 light 1 with N92S, A93S
heavy 2: B1 heavy 2
light 2: B1 light 2
notes: as for B1
T cell mediated tumor cell killing EC50, HCC1954-Luc (human B7-H4 on cells [1]): 620 nM | T cell mediated tumor cell killing, T47D (human B7-H4 on cells [1]): 1270

EC50 (human B7-H4 on cells [2]): 6.88 nM | EC50 [3]: 5.51 nM
B6: B7-H4xCD3 bispecific antibody 1170 (bispecific antibody, IgG2)
heavy 1: B1 heavy 1
light 1: B1 light 1 with H36L
heavy 2: B1 heavy 2
light 2: B1 light 2
notes: as for B1
T cell mediated tumor cell killing EC50, HCC1954-Luc (human B7-H4 on cells [1]): 595 nM | T cell mediated tumor cell killing, OVCAR3-Luc (human B7-H4 on cells [1]): 130 | T cell mediated tumor cell killing, T47D (human B7-H4 on cells [1]): 444

EC50 (human B7-H4 on cells [2]): 3.55 nM | EC50 [3]: 5.7 nM
B7: B7-H4xCD3 bispecific antibody 1136 (bispecific antibody, IgG2)
heavy 1: B2 heavy 1 with V24A, L78F
light 1: B2 light 1
heavy 2: B1 heavy 2
light 2: B1 light 2
notes: as for B1
T cell mediated tumor cell killing EC50, HCC1954-Luc (human B7-H4 on cells [1]): 500 nM | T cell mediated tumor cell killing, T47D (human B7-H4 on cells [1]): 3820

Reference: patent US20220017622A1 (Pfizer, published 2022)
